For data set [1], the target named is E1o (S. scrofa full-length E1o, GST tag cut off) (S. scrofa). Description: SPR. In general terms: In SPR one partner is held on a chip, and binding of the other changes the refractive index at the surface.
Data set [2] deals with the molecule itself. Description: cryo-electron tomography with subtomogram averaging.

Results on two molecules are retold here after article PMC11436768 (Nature Communications, 2024).

The term Kd denotes the constant that tells how readily two partners part at equilibrium. Read a high Kd as lower affinity.

With “E3 (S. scrofa full-length E3, GST tag cut off) (from UniProt P09623 36-509) (natural protein)”, in data set [1], the Kd worked out at 1.84 µM.

B1: E3 subunit (dihydrolipoyl dehydrogenase) of native 2-oxoglutarate dehydrogenase complex from Sus scrofa heart (natural protein)
chain: ADQPIDADVTVIGSGPGGYVAAIKAAQLGFKTVCIEKNETLGGTCLNVGCIPSKALLNNSHYYHMAHGKDFASRGIEMSEVRLNLEKMMEQKSNAVKALTGGIAHLFKQNKVVRVNGYGKITGKNQVTATKADGSTEVINTKNILIATGSEVTPFPGITIDEDTVVSSTGALSLKKVPEKMVVIGAGVIGVELGSVWQRLGADVTAVELLGHVGGIGIDMEVSKNFQRILQKQGFKFKLNTKVIGATKKSDGNIDVSIEAASGGKAEVITCDVLLVCIGRRPFTQNLGLEELGIELDPRGRIPVNTRFQTKIPNIYAIGDVVAGPMLAHKAEDEGIICVEGMAGGAVHIDYNCVPSVIYTHPEVAWVGKSEEQLKEEGIEYKVGKFPFAANSRAKTNADTDGMVKILGQKSTDRVLGAHIIGPGAGEMINEAALALEYGASCEDIARVCHAHPTLSEAFREANLAASFGKAINF
For B1, in data set [2], the binding result was “binds”.
